According to patent US20180237502A1 (INTEGRATED BIOTHERAPEUTICS, published 2018):

B1: murine monoclonal antibody 16G8 (antibody, V domains shown)
VH: EVQLQESGPGLVKPGASVKISCKASGYSFTGYYMNWVKQSPEKSLEWIGEINPSTGGTTYNQKFKAKATLTVDKSSSTAYMQLKSLTSEDSAVYYCVRYSHYYGSGSWYFDVWGTGTTVTVSS
VL: DIQMTQSPASLSASVGETVTITCRASENIYSNLAWYQQKQGKSPQLLVNAATNLADGVPSRFSGSGSGTQFSLKINSLQPEDFGSYYCQHFYVTPYMFGSGTKLEIKR
notes: also called m16G8
B2: murine monoclonal antibody 8C4 (antibody, V domains shown)
VH: EVQLQESGPELKKPGETVKISCKASGYTFTTYGMSWVKQAPGKGLKWMGRINTYSGVPTYADEFKGRFAFSLENSASTAYLQINNLKNEDTATYFCARGDGGHWFANWGQGTLVTVSA
VL: DIQMTQSPSSLSASLGGKVTITCKASQDINKNIAWYQHKPGKGPRLLIWYKSALQPGIPSRFSGSGSGRDYSFSISNLEPEDIATYSCLQYDNLPPTFGGGTKLEIKR
notes: also called m8C4
B3: murine monoclonal antibody 4B8 (antibody, V domains shown)
VH: EVQLQESGPGILQPSQTLSLTCSFSGFSLRTLGMGVGWIRQSSGKGLEWLAHIWWSDENYYNPALKSRLTISKDTSKNQVFLRIANVDTAETATYYCARIAYDGYFDYWGQGTSLTVSS
VL: KFPSQLLLLLLFGIPGDRVTITCKASEDIYNRLAWYQQKPGNAPRLLISGATSLETGVPSRFSGSGSGKDYTLSITSLQTEDVATYYCQQYWTTPWTFGGGTKLEIKR
notes: also called m4B8
B4: murine monoclonal antibody 2D8 (antibody, V domains shown)
VH: EVQLQESGGELVRPGTSVKISCKASGYTFTNFWLGWIKERPGHGLEWIGDIYPGGHYTNYNENFKGKATLTADTSSNTAYMQVSSLTSEDSAVYFCFTQYYDMDYWGQGTSVTVSS
VL: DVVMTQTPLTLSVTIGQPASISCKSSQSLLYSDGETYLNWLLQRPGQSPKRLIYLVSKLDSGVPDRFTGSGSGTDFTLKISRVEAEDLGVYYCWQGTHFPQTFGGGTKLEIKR
B5: murine monoclonal antibody 21B2 (antibody, V domains shown)
VH: EVQLQESGAELVRPGASVTLSCKTSGYTFTDYEMHWVKQTPVHGLEWIGAIDPETGGTAYNQKFKGKATLTADKSSSTAYMELSRLTSEDSAVYYCTGNYATDYWGQGTSVTVSS
VL: DIVMSQSPSSLAVSAGEKVTMSCKSSQSLFNSRSRKNYLAWYQLKPGQSPKLLIYWASTRESGVPDRFTGSGSGTDFTLTISSVQAEDLAVYYCKQSNYLWTFGGGTKLEIKR
notes: also called m21B2
B6: murine monoclonal antibody 17C6 (antibody, V domains shown)
VH: EVQLQESGPGLVQPSQSLSITCTVSGFSLTSYGVHWVRQSPGKGLEWLGVIWSGGSTDYNAAFISRLSISKDNSKSQVFFKMNSLQADDTAIYYCARNWFDYDNYYSMDYWGQGTSVTVSS
VL: DIQMTQTTSSLSASLGDRVTISCRASQDISNYLNWYQQKPDGTVKLLIYYTSRLHSGVPSRFSGSGSGTDFSLTISNQEPEDIATYYCQQYSNLPWTFGGGTKLEIKR

How the values were obtained:
MARV GPdTM [1] = target: T1, MARV GPdTM (Marburg virus (MARV), UniProt P35253 19-637); experiment: ELISA, purified GPdTM immobilized, serial dilutions of purified mouse mAb
T1 construct: also called Marburg virus glycoprotein GPdTM
T1 sequence: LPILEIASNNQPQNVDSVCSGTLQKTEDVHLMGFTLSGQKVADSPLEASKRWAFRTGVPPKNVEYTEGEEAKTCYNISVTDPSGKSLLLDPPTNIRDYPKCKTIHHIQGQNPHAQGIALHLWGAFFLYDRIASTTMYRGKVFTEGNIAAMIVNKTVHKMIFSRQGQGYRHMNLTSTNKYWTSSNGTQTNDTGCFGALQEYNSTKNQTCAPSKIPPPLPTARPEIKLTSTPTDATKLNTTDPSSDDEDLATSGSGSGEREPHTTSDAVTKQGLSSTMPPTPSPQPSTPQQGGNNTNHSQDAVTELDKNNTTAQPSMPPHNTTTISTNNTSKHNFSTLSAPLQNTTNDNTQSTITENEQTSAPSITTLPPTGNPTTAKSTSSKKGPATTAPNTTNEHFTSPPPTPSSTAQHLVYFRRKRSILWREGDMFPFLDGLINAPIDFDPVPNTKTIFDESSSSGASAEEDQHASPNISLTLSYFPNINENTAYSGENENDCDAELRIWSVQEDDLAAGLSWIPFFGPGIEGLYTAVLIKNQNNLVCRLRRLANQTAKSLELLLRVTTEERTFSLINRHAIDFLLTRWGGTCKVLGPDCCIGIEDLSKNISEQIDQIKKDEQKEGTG

RESTV GPdTM [2] = target: T2, RESTV GPdTM (Reston virus (RESTV), UniProt Q66799 34-638)
T2 sequence: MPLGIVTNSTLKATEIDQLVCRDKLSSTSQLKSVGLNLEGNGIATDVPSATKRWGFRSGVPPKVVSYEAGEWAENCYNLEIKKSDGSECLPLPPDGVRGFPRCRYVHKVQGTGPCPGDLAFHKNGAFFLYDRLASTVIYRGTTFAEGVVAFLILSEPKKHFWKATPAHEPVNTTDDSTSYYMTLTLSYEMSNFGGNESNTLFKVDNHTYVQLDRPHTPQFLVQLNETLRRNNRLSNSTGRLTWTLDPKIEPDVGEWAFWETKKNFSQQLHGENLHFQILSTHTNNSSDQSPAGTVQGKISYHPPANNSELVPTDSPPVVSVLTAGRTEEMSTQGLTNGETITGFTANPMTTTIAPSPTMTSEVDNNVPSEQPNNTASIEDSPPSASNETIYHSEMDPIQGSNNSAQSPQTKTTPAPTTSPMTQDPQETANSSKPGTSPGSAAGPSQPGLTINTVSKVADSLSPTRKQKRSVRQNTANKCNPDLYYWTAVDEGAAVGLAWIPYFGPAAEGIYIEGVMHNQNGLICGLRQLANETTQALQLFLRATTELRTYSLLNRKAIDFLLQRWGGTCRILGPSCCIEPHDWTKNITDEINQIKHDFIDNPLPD

EBOV GPdTM [3] = target: T3, EBOV GPdTM (Ebola virus (EBOV), UniProt Q05320 33-637)
T3 sequence: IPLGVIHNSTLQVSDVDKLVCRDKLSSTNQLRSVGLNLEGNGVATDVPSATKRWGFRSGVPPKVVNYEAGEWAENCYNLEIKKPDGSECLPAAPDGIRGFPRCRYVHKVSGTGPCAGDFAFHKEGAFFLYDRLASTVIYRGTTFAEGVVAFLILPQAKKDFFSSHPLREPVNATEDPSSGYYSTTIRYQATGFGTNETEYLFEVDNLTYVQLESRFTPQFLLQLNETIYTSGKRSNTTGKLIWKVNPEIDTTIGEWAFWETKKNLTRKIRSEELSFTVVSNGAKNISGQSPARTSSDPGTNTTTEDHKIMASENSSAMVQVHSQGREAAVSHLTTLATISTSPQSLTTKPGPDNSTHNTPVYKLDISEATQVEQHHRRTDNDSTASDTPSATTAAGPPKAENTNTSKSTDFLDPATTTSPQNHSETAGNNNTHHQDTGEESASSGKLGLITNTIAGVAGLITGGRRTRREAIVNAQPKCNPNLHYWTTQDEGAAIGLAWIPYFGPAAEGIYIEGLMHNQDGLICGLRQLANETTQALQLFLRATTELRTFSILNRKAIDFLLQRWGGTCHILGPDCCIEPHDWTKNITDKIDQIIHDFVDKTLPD

RESTV GPdTM [4] = target: T2, RESTV GPdTM; experiment: ELISA, purified GPdTM immobilized, serial dilutions of purified mouse mAb
MARV GPdTM [5] = target: T1, MARV GPdTM
EBOV GPdTM [6] = target: T3, EBOV GPdTM; experiment: ELISA, purified GPdTM immobilized, serial dilutions of purified mouse mAb

Row | Binder | binding result (MARV GPdTM [1]) | EC50 (RESTV GPdTM [2]) | EC50 (EBOV GPdTM [3]) | binding result (RESTV GPdTM [4]) | EC50 (MARV GPdTM [5]) | binding result (EBOV GPdTM [6])
1 | B1 | no binding | > 10 µg/mL | > 10 µg/mL | – | – | –
2 | B2 | no binding | – | 0.26 µg/mL | no binding | – | –
3 | B3 | no binding | 0.157 µg/mL | – | – | – | –
4 | B4 | – | – | > 10 µg/mL | – | 0.0445 µg/mL | –
5 | B5 | – | – | – | – | 0.0688 µg/mL | no binding
6 | B6 | – | 1.56 µg/mL | 0.04 µg/mL | – | – | –
